According to article PMC10942606:

Assays:
Experiment in all cases: EMSA
Pcf1 WT;Pcf2;Pcf3;SpPCNA = Pcf1 WT;Pcf2;Pcf3;SpPCNA (Schizosaccharomyces …, UniProt Q1MTN9;O13985;Q9Y825;Q03392 1-544;1-512;1-408;1-260, |||)
Pcf1 WT;Pcf2;Pcf3 = molecular target: T1, Pcf1 WT;Pcf2;Pcf3 (Schizosaccharomyces …, UniProt Q1MTN9;O13985;Q9Y825 1-544;1-512;1-408, ||)
T1 sequence 1: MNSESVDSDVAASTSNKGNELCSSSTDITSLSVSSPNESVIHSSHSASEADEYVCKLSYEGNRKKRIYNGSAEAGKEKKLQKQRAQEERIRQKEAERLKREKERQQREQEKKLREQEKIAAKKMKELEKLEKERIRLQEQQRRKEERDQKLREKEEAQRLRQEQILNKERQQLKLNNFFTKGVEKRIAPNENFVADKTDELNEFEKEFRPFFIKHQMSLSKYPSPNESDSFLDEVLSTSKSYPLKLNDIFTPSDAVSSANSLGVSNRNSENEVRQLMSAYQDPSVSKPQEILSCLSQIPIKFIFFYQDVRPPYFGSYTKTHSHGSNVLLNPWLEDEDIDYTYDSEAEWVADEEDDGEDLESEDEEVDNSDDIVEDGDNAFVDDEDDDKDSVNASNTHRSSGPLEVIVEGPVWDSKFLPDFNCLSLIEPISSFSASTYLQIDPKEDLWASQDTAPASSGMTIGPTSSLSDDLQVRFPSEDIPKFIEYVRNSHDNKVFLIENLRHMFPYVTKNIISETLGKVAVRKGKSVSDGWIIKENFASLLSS
T1 sequence 2: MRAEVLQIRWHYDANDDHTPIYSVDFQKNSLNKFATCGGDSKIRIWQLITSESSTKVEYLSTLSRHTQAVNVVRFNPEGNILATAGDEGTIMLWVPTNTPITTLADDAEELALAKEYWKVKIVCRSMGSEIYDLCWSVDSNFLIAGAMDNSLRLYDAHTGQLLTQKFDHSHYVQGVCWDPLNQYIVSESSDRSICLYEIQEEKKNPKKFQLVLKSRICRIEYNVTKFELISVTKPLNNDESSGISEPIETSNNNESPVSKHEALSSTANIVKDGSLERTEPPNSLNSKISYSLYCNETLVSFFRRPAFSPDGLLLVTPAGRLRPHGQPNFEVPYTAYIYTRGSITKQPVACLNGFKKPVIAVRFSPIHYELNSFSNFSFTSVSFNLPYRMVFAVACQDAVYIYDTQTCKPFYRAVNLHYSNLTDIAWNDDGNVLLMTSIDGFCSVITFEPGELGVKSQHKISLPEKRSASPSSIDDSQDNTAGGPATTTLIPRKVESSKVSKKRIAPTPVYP
T1 sequence 3: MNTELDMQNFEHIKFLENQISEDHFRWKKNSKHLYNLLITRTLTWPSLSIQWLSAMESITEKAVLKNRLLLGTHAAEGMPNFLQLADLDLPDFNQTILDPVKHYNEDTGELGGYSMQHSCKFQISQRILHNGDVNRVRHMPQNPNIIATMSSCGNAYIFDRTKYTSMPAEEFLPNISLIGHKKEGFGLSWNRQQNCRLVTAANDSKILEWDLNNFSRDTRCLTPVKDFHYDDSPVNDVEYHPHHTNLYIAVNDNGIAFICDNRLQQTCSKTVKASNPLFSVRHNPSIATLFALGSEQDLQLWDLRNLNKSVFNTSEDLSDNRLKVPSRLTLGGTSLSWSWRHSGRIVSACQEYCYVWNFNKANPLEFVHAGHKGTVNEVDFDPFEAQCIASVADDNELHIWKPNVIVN

[1] = molecular target: Pcf1-ΔWHD;Pcf2;Pcf3;SpPCNA (Schizosaccharomyces …, UniProt Q1MTN9;O13985;Q9Y825;Q03392 1-470;1-512;1-408;1-260, del471-544|||)
Pcf1_WHD = molecular target: T2, Pcf1_WHD (Schizosaccharomyces pombe, UniProt Q1MTN9 471-544)
T2 sequence: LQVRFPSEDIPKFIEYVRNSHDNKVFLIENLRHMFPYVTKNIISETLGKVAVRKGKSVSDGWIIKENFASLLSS

Chain of Pcf1 WT;Pcf2;Pcf3;SpPCNA (Q03392 whole entry, one chain of several): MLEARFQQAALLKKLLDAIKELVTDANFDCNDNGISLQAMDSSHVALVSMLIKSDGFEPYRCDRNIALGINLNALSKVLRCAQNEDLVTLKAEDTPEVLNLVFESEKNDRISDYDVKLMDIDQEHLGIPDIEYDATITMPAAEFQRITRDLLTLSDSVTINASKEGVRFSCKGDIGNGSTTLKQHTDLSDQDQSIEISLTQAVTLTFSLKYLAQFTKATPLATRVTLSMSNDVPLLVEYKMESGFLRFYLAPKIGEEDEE
Chain of Pcf1-ΔWHD;Pcf2;Pcf3;SpPCNA (Q03392 whole entry, stated change not applied, one chain of several): as the sequence (Q03392 whole entry, one chain of several) above

B1: 40 bp dsDNA (dsDNA)
DNA 1: ATCAATATCCACCTGCAGATACTACCAAAAGTGTATTTGG
DNA 2: CCAAATACACTTTTGGTAGTATCTGCAGGTGGATATTGAT
binding result (Pcf1 WT;Pcf2;Pcf3;SpPCNA): binds
apparent K (half saturation) (Pcf1 WT;Pcf2;Pcf3): 3.4 ± 0.4 µM
binding result [1]: binds
binding result (Pcf1_WHD): no binding
